In US9526786B2, “Thermostabilization of proteins” (The Trustee of Columbia University in the City of New York, priority 2007, dated 2016):
Residue numbers refer to the chain shown, from its start. In names and notes the source's numbering stands.

Experiments:
CocE [1] = biological target: T1, CocE (Rhodococcus sp., UniProt Q9L9D7); assay type: biochemical, Rhodococcus sp. MB 1; details: cocaine: 62.5 and 125 μM; benzoic acid: higher concentrations
T1 construct: 6xHis (C); made in house; host or cells: E. coli BL-21 Gold (DE3), pET-22b(+)
T1 sequence (Q9L9D7 1-574): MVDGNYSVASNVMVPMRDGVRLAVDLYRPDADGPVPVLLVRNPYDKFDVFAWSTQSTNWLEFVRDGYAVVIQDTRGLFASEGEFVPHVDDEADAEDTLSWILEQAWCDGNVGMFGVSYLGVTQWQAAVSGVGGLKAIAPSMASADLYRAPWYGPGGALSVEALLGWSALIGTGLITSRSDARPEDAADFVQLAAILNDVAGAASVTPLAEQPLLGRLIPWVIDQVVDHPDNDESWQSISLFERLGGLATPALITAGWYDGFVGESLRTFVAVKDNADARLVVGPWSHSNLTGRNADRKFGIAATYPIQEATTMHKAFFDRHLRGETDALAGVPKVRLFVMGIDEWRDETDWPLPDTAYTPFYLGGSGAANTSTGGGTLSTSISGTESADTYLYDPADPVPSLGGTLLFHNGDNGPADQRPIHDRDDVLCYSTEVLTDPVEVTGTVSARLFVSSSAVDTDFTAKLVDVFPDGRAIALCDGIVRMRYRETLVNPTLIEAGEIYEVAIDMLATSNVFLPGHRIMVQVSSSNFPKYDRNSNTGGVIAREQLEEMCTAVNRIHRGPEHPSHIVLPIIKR
Protocol: CocE is also able to cleave another substrate, 4-nitrophenyl acetate (FIG. 3). Cleavage is monitored by detection of the appearance of the 4-nitrophenol reaction product, which absorbs at 400 nm.
Further spectrophotometric analysis of cocaine stabilization was performed, by analyzing the ability of CocE to cleave 4-nitrophenyl acetate, after preincubation at 37° C. for various times, in the presence of various concentrations of cocaine. […] However, preincubation of CocE at the higher concentrations for various times at 37° C. indicated the enzyme was stabilized enough to be able to cleave the 4-nitrophenyl substrate (FIG. 5).

CocE WT = biological target: T2, CocE WT (Rhodococcus sp., UniProt Q9L9D7); assay: Inhibition of CocE WT aggregate formation, non-denaturing gel, 1 hour at 37° C.; parameters: species or system Rhodococcus sp. MB 1
T2 construct: 6xHis (C); made in house; host or cells: E. coli BL-21 Gold (DE3), pET-22b(+)
T2 sequence (Q9L9D7 1-574): T1 sequence (Q9L9D7 1-574)
From the text: To further study CocE stabilization with small molecules, other inhibitors of the CocE cleavage reaction were considered.

CocE [2] = biological target: T1, CocE; assay type: biochemical, Rhodococcus sp. MB 1; details: for stabilization of CocE at 37° C., lower concentrations: cocaine lower than 62.5 μM, others below 125 μM
Protocol: Further spectrophotometric analysis of cocaine stabilization was performed, by analyzing the ability of CocE to cleave 4-nitrophenyl acetate, after preincubation at 37° C. for various times, in the presence of various concentrations of cocaine.

[3] = Protocol: Analysis of CocE action on cocaine cleavage is performed by utilizing the spectroscopic properties of cocaine, which maximally absorbs light at a 240 nm wavelength. CocE activity is measured by monitoring for a decrease in signal at A240, using various concentrations of cocaine, and determining the initial rate of the decrease. From these values the Vmax of the enzyme can be determined. By pre-incubating the enzyme at 37° C. for various times before monitoring for activity, the half life of CocE at 37° C. can be calculated.
The initial rates (of decay) were determined by following the change in the intrinsic absorbance of cocaine at 240 nm (6700 M^1 cm^1)(Xie et al., 1999) using a SpectraMax Plus 384 UV plate reader (Molecular Devices, Sunnyvale, Calif.) using SOFTmax Pro software (Version 3.1.2). The reaction was initiated by adding 100 μL of a 2× enzyme solution (100 mM phosphate buffer, pH 7.4 and 300 mM NaCl) to 100 μL of a 2× cocaine solution (50 μg/mL enzyme, 100 mM Phosphate Buffer, pH 7.4 and 300 mM NaCl). All assays were performed with 100 μM DTT unless indicated otherwise. […] For stability measurements, wild type and mutant enzymes were diluted to 2× concentration and incubated at 37° C. for the times indicated. At the end of each time point, an aliquot was removed and kinetic behavior was observed as outlined above.
(§1) In vitro kinetic assays. […] Initial rates were then used to determine Michaelis-Menten parameters. To assess thermal stability, enzyme preparations were preincubated at 37° C. for various lengths of time, prior to measurement of residual activities (Table 1 and FIG. 23).

[4] = Michaelis-Menten kinetics of cocaine hydrolysis (absorbance at 240 nm); assay type: biochemical
Protocol: The initial rates (of decay) were determined by following the change in the intrinsic absorbance of cocaine at 240 nm (6700 M^1 cm^1)(Xie et al., 1999) using a SpectraMax Plus 384 UV plate reader (Molecular Devices, Sunnyvale, Calif.) using SOFTmax Pro software (Version 3.1.2). The reaction was initiated by adding 100 μL of a 2× enzyme solution (100 mM phosphate buffer, pH 7.4 and 300 mM NaCl) to 100 μL of a 2× cocaine solution (50 μg/mL enzyme, 100 mM Phosphate Buffer, pH 7.4 and 300 mM NaCl). All assays were performed with 100 μM DTT unless indicated otherwise. Final cocaine concentrations were as follows: 125, 62.5, 31.25, 15.63, 7.81, 3.91, 1.95, and 0.977 μM. Vmax and Km values were calculated using Prism (GraphPad Software, San Diego). For stability measurements, wild type and mutant enzymes were diluted to 2× concentration and incubated at 37° C. for the times indicated. At the end of each time point, an aliquot was removed and kinetic behavior was observed as outlined above.
as §1
Determination of Catalytic Efficiency. To determine the catalytic activity a spectrophometric assay was performed. Samples of L169K/G173Q CocE were added to a 96-well UV permeable plate containing increasing cocaine concentrations (0.5, 2.5, 5, 12.5, 25, 50, 100, and 150 μM) to give a final concentration of 10 ng/ml CocE in a final volume of 200 μl. The change in absorbance at 240 nm was measured over 20 minutes, with readings every 10 seconds, by a SpectraMax Plus 384 UV plate reader (Molecular Devices, Sunnyvale, Calif.) using SOFTmax Pro software (Version 3.1.2). The change in absorbance was converted to the change in concentration and furthermore the rate of decay per mole enzyme is determined (Kcat). Kcat and Km of the enzyme are determined using Prism (GraphPad software, San Diego).

[5] = system: cocaine-induced lethality; assay: In vivo potency of protection against cocaine-induced lethality; parameters: species or system NIH-Swiss mice
[6] = system: cocaine-induced lethality; assay: In vivo duration of protection against cocaine-induced lethality; parameters: species or system NIH-Swiss mice
Protocol: In vivo protection against cocaine lethality. Male NIH-Swiss mice (25-32 g) were obtained from Harlan Inc. (Indianapolis, Ind.) and were housed in groups of 6 mice per cage. All mice were allowed ad libitum access to food and water, and were maintained on a 12-h light-dark cycle with lights on at 06.30 AM in a room kept at a temperature of 21-22° C. Experiments were performed in accordance with the Guide for the Care and Use of Laboratory Animals as adopted and promulgated by the National Institutes of Health. The experimental protocols were approved by the University Committee on the Use and Care of Animals at the University of Michigan.
Cocaine-induced toxicity was characterized by the occurrence of lethality, as defined by the cessation of observed movement and respiration. Mice were placed individually in Plexiglas observation chambers (16×28×20 cm high) to be habituated for 15 min before drug administration. Following intra-peritoneal (i.p.) cocaine administration, the mouse was immediately placed individually in the same chamber for observation. The presence or absence of lethality was recorded for 60 min following cocaine administration. The mouse was placed in a small restraint chamber (Outer tube diameter: 30 mm; Inner tube diameter: 24 mm) that left the tail exposed. The tail was cleansed with an alcohol wipe and a 30G1/2 precision glide needle (Fisher Scientific, Pittsburgh, Pa.) was inserted into one of the side veins for infusion. The i.v. injection volume of CocE or CocE mutant was 0.2 mL per mouse. Sterile gauze and pressure were applied to the injection site to staunch the bleeding.
Lethality was monitored following injection at 1, 5, 10, or 30 min, or 1, 2, 3, 4, 5 hours after enzyme administration. Each treatment used 8 mice to assess the percent of lethality (i.e., protection) in mice pretreated with a single dose of an esterase at a single time point.
These values were used to compare the degree of rightward shifts of cocaine's dose-response curve in the absence or presence of the enzyme pretreatment. In the time course study, a time point for duration of protection (i.e., 50% of lethality) was estimated by using each time course curve crossing 50% occurrence of lethality.
Evaluation of in vivo half life. CocE is administered IV to the tail vein in a volume of 0.2 ml. Animals are challenged with 180 mg/kg cocaine delivered intraperitoneally at a given time after CocE administration.

[7] = 1 mg i.v., cocaine 180 mg/kg i.p.

O=C(O)c1ccccc1 [benzoic acid]
inhibition of 4-nitrophenyl acetate cleavage (CocE [1]): inhibit | inhibition of formation of CocE protein aggregates (CocE WT): inhibited the formation of aggregates | stabilization of CocE at 37° C., higher concentrations (CocE [2]; cocaine 62.5 and 125 μM, benzoic acid above 125 μM): stabilize | stabilization of CocE at 37° C., lower concentrations (CocE [2]): did not reveal any stabilization

CC(=O)[O-].[Na+] [sodium acetate]
inhibition of formation of CocE protein aggregates (CocE WT): could not | stabilization of CocE at 37° C., lower concentrations (CocE [2]): did not reveal any stabilization

COC(=O)[C@@H]1[C@H]2CC[C@@H](C[C@@H]1O)N2C [ecgonine methyl ester]
inhibition of formation of CocE protein aggregates (CocE WT): could not | stabilization of CocE at 37° C., lower concentrations (CocE [2]): did not reveal any stabilization

B1: T172R/G173Q: CocE double mutant (protein, listed as Rhodococcus sp.)
chain: T1 sequence (Q9L9D7 1-574) with T172R, G173Q
Stability @ 37 (t1/2) [3]: ~5.43 h | half-life / τinact of activity at 37° C. [3]: 5.43 h | t1/2 [3]: 5.43 h | plateau of catalytic activity, percent of maximal ([3]; 37° C., after greater than 8 hr / t=10 hours): approximately 35% | extension of in vitro τinact at 37° C. ([3]; from 10 min): approximately 27 fold | Kcat(mol · s^−1 · mol^−1) ([4]; cocaine): 2247 mol · s^−1 · mol^−1 | protection against cocaine-induced lethality ([5]; i.v. pretreatment 1 min prior to i.p. cocaine): protected | LT50, pretreatment time to 50% lethality [6, 7]: up to 4.5 hr | LT50, pretreatment time to 50% lethality ([6]; 1 mg i.v., cocaine 180 mg/kg i.p., listed as T172R-G173Q): ~4.5 h | extension of pretreatment duration with 50% protection ([6]; mouse, in vivo): greater than 20 fold

B2: L169K/G173Q: CocE double mutant, SEQ ID NO:1 with substitutions L169K and G173Q (protein, listed as Rhodococcus sp.)
chain: T1 sequence (Q9L9D7 1-574) with L169K, G173Q
turnover per molecule of enzyme [4]: approximately 6000 molecules of cocaine per minute | lowest dose maintaining some degree of protection ([5]; i.v., cocaine i.p. 1 min later): 0.01 mg | protection from increasing lethal doses of cocaine ([5]; i.v., cocaine i.p. 1 min later): dose-dependently protected | time for which 50% of mice were protected from death [6, 7]: up to 7.5 hrs

B3: G173Q: CocE mutant (protein, listed as Rhodococcus sp.)
chain: T1 sequence (Q9L9D7 1-574) with G173Q
Stability @ 37 (t1/2) [3]: ~0.417 h

B4: L169K/G173Q/T172R: CocE triple mutant (protein)
chain: T1 sequence (Q9L9D7 1-574) with L169K, T172R, G173Q
enhanced stabilization at 37° C. ([3]; data not shown): did not display an enhanced stabilization
